The text below walks through data of patent US20210292386A1.

Test in all cases: cell-based or functional assay
In assay [1] the target is T1, high-affinity IL2 receptor (IL2Rαβγ) of the mouse T cell line CTLL-2 (mouse) (UniProt P01590).
T1 sequence (looked up) 1: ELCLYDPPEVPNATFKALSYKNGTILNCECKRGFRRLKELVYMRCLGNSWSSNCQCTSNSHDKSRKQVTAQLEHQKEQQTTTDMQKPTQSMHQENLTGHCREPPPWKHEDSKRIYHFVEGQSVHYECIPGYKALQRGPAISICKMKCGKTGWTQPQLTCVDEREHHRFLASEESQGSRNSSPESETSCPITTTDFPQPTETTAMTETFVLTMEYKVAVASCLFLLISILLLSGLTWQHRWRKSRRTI
T1 sequence (looked up) 2: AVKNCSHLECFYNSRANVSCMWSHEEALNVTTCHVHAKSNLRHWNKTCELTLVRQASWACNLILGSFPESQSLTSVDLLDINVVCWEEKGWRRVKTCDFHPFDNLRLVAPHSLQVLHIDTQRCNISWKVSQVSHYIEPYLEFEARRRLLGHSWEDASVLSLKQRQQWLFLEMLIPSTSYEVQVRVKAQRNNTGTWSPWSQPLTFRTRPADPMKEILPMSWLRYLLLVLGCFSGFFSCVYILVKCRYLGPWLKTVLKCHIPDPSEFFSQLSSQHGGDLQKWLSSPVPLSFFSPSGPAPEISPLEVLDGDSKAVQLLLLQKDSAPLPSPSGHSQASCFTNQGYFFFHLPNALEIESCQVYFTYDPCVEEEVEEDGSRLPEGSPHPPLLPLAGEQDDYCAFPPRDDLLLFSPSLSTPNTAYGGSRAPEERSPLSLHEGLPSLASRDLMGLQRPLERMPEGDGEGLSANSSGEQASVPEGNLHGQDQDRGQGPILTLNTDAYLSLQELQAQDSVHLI
T1 sequence (looked up) 3: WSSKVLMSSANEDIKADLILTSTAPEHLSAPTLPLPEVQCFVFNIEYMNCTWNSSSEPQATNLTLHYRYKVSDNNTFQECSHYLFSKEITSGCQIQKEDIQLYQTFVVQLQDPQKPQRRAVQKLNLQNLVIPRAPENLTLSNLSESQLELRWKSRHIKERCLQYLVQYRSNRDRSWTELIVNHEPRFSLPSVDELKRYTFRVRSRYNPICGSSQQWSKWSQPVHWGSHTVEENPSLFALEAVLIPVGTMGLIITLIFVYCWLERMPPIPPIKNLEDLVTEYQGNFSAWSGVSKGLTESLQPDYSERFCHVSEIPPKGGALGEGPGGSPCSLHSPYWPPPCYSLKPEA

Assay [2] deals with high-affinity IL2 receptor (IL2Rαβγ), human, on CD4+CD25+FoxP3+ regulatory T cells (human) (UniProt P01589). Further details: unit not given beside the values.
In assay [3] the target is intermediate-affinity IL2 receptor (IL2Rβγ), human (human) (UniProt P14784). Further details: unit not given beside the values.
The target of assay [4] is T1, high-affinity IL2 receptor (IL2Rαβγ) of the mouse T cell line CTLL-2 (mouse). This is another data set of the same source.
For assay [5], the target named is intermediate-affinity IL2 receptor (IL2Rβγ), human (human) (UniProt P14784).

Like-named read-outs stand apart in the source and are kept apart here.

Chain of UniProt P14784 (P14784 27-551, chain 1 of 2): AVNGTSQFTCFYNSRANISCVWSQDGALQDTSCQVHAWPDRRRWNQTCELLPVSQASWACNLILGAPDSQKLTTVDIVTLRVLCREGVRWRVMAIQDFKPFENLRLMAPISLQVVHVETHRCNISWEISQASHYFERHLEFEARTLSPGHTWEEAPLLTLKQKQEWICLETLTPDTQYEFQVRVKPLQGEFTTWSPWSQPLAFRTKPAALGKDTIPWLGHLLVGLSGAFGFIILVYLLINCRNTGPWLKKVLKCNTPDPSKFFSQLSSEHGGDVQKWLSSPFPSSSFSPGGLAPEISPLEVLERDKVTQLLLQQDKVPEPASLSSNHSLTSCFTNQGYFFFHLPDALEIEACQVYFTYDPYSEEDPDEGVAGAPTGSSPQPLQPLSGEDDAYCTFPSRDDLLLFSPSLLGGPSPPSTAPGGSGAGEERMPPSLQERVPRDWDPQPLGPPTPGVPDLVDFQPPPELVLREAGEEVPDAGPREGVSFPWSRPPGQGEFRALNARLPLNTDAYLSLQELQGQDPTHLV
Chain of UniProt P14784 (P31785 23-369, chain 2 of 2, further chain): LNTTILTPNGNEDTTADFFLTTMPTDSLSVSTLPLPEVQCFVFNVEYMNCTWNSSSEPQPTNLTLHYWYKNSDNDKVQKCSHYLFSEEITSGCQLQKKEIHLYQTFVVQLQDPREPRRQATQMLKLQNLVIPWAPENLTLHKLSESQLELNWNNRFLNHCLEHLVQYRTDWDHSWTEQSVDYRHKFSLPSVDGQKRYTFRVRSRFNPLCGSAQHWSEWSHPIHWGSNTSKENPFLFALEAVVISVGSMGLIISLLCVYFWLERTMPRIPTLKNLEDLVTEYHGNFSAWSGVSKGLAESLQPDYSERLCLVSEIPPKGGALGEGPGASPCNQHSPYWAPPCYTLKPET
Chain of UniProt P01589 (P01589 22-272, chain 1 of 3): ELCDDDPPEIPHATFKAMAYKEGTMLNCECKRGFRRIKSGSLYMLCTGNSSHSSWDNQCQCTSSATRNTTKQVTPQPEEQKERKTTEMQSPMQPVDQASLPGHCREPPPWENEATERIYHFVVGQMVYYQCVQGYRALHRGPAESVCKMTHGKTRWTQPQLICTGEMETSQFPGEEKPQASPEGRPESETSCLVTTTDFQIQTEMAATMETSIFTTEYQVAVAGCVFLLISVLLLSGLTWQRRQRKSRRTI
Chain of UniProt P01589 (P14784 27-551, chain 2 of 3, further chain): as the sequence (P14784 27-551, chain 1 of 2) above
Chain of UniProt P01589 (P31785 23-369, chain 3 of 3, further chain): as the sequence (P31785 23-369, chain 2 of 2, further chain) above

For hAlb-hIL2 (ligand), in assay [1], the EC50 of CTLL-2 proliferation (%-supernatant) came to 0.115. Moreover, in assay [2], the EC50 of STAT5 phosphorylation, CD4+CD25+FoxP3+ Treg (%-supernatant) is 0.111. For the same substance, in assay [3], the EC50 of STAT5 phosphorylation, CD4+CD25- T helper cells (%-supernatant) stood at 4.36 and the EC50 of STAT5 phosphorylation, CD8+ cytotoxic T cells (%-supernatant) amounted to 6.84. In assay [4], this substance returned an EC50 of CTLL-2 proliferation (%-supernatant) of 0.214. In assay [5], the EC50 of TF-1 IL2Rβγ proliferation (%-supernatant) turned out to be 2.35.
